Columns and labels:
[1] = molecular target: T1, PHD2 (Homo sapiens, UniProt Q9GZT9); assay: Prolyl hydroxylation assay / in vitro VHL binding assay with GST-HIF-1α (531-826); format: biochemical
T1 construct: expressed in transfected cells; host or cells: 293 cells (whole cell lysate used as the enzyme source)
Protocol: [^35S]methionine-labeled VHL protein was synthesized in vitro and GST-HIF-1α (531-826) fusion protein (GstA) was expressed in E. coli. 293 cells were transfected with empty, PHD2, or OS-9 expression vector. After 24 h, cells were washed twice with cold hypotonic extraction buffer containing 20 mM Tris (pH 7.5), 5 mM KCl, 1.5 mM MgCl2, 1 mM dithiothreitol and lysed with hypotonic extraction buffer in a Dounce homogenizer. The cell extract was centrifuged at 10,000×g for 10 min at 4° C., and the supernatant was stored in aliquots at −70° C. GstA (4 μg) was preincubated with whole cell lysate (50 μg) in a total volume of 50 μl with PBS-T at 30° C. for 10 min with or without 1 mM dimethyloxalyl glycine (DMOG). The reaction was terminated by addition of desferrioxamine to 1 mM. One aliquot (0.5 μg of GstA) was used for immunoblot assay using anti-hydroxyproline-564 HIF-1α antibody (Chan et al., 2002). The remainder ([…] of GstA) was used for in vitro VHL binding assay.
For in vitro VHL binding assay, preincubated GstA and 5 μl of [^35S]methionine-labeled VHL protein were mixed in a total volume of 300 μl of PBS-T with 1 mM desferrioxamine and incubated at 4° C. for 90 min. 20 ul of glutathione-Sepharose-4B beads (Amersham Biosciences) was added and incubated for 30 min with rotation. Beads were washed three times with PBS-T. Proteins were eluted in Laemmli sample buffer, fractionated by SDS-PAGE, and detected by autoradiography. For PHD binding assay, […] of GST-HIF-1α was preincubated with 50 μg of -whole cell lysate in a total volume of 50 μl with PBS-T at 30° C. for 10 min with or without 1 mM DMOG. The reaction was terminated by addition of desferrioxamine to 1 mM, 20 μl of glutathione-Sepharose-4B beads were added and incubated for 30 min. The beads were washed three times with PBS-T. Bound protein was eluted in Laemmli sample buffer, fractionated by SDS-PAGE, and subjected to immunoblot assay using antibodies against PHD2 (Novus Biologicals Inc.) or GST (Amersham).

[2] = test system: HIF-1α; assay: HIF-1α protein levels by immunoblot in transfected 293 cells; format: cell-based, human
Protocol: (§1) 293 or Hep3B cells were seeded onto 24-well plates at 8×10^4 cells per well of a 24-well plate. The following day, the cells were transfected with plasmid DNAs using Fugene-6 (Roche) for 293 and Lipofectamine Plus (Invitrogen) for Hep3B cells. After 24 h, the cells were exposed to 20% or 1% O2 for 24 h. Cells were lysed, and the luciferase activities were determined by multi-well luminescence reader (PerkinElmer), using the Dual-Luciferase Reporter Assay System (Promega). For p2.1 reporter assay, cells were co-transfected with 15 ng of control reporter pSV-Renilla, 135 ng of HIF-1 reporter p2.1, and expression vector encoding HA-OS-9, HIF-1α, or empty vector. Unless indicated otherwise, 200 ng of HIF-1α, 400 ng of HA-OS-9, 1 ng of PHD2, or 1 ng of HIF-1α triple mutant P402A/P564A/N803A (HIF-1α TM) expression vector was used for co-transfection. For pGalA reporter assays, Hep3B cells were co-transfected with 12.5 ng of pSV-Renilla, reporter 200 ng of pG5ElbLuc, 100 ng of expression vector encoding the GAL4 DNA-binding domain alone or fused to HIF-1α residues 531-826 (Jiang et al. 1997) and empty vector or vector encoding HA-OS-9. For immunoblot assays, 293 cells were seeded at 3×10^6 cells per 10-cm plate. The following day, the cells were co-transfected with expression vectors using Fugene-6. After 24 h, the cells were exposed to 20% or 1% O2 with or without MG132 (10 μM) for 8 h and lysed in 200 μl of lysis buffer containing 50 mM Tris-Cl (pH 8.0), 150 mM NaCl, 5 mM EDTA, 0.1% SDS, 1% NP-40, 0.5% sodium deoxycholate, Complete protease inhibitor cocktail (Roche), sodium orthovanadate, and sodium vanadate (Sigma).

[3] = test system: HIF-1; assay: HIF-1-dependent p2.1 luciferase reporter assay; format: cell-based, human
Protocol: as §1

[4] = 293 cells, co-transfection of OS-9, FIG. 4B

T1 sequence (Q9GZT9 whole entry): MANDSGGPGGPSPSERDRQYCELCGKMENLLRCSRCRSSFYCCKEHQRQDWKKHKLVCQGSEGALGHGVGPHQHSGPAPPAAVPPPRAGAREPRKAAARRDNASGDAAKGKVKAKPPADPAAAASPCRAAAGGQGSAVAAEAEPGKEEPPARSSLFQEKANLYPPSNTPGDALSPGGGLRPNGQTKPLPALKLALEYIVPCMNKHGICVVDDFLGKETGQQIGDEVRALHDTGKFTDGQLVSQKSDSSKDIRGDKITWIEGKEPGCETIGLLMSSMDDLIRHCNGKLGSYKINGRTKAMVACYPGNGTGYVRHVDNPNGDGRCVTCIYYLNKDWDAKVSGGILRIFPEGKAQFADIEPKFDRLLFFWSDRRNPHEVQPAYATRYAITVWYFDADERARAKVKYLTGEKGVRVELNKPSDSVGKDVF

prolyl hydroxylation of GST-HIF-1α (531-826) (hydroxyproline at residue 564) ([1]; immunoblot with anti-Hyp-564 antibody, FIG. 7A middle panel): increase
binding of VHL to hydroxylated GST-HIF-1α (531-826) ([1]; increasing amounts of in vitro-translated OS-9 added after hydroxylation, desferrioxamine present, FIG. 6C): no effect
VHL binding to GST-HIF-1α (531-826) ([1]; lysates from cells co-transfected with PHD2 and OS-9 versus PHD2 alone, FIG. 7A top panel): further increased
Induction of p2.1 reporter activity by HIF-1α [3, 4]: significantly inhibited
Reporter gene activity induced by hypoxia and/or HIF-1α expression vector ([3]; co-transfection of OS-9 expression vector, Hep3B cells, 20% or 1% O2, FIG. 3A): dramatically inhibited
B1: OS-9: human OS-9 protein (667-residue isoform), HA-tagged, from expression vector or in vitro-translated (protein)
chain: MAAETLLSSLLGLLLLGLLLPASLTGGVGSLNLEELSEMRYGIEILPLPVMGGQSQSSDVVIVSSKYKQRYECRLPAGAIHFQREREEETPAYQGPGIPELLSPMRDAPCLLKTKDWWTYEFCYGRHIQQYHMEDSEIKGEVLYLGYYQSAFDWDDETAKASKQHRLKRYHSQTYGNGSKCDLNGRPREAEVRFLCDEGAGISGDYIDRVDEPLSCSYVLTIRTPRLCPHPLLRPPPSAAPQAILCHPSLQPEEYMAYVQRQADSKQYGDKIIEELQDLGPQVWSETKSGVAPQKMAGASPTKDDSKDSDFWKMLNEPEDQAPGGEEVPAEEQDPSPEAADSASGAPNDFQNNVQVKVIRSPADLIRFIEELKGGTKKGKPNIGQEQPVDDAAEVPQREPEKERGDPERQREMEEEEDEDEDEDEDEDERQLLGEFEKELEGILLPSDRDRLRSEVKAGMERELENIIQETEKELDPDGLKKESERDRAMLALTSTLNKLIKRLEEKQSPELVKKHKKKRVVPKKPPPSPQPTEEDPEHRVRVRVTKLRLGGPNQDLTVLEMKRENPQLKQIEGLVKELLEREGLTAAGKIEIKIVRPWAEGTEEGARWLTDEDTRNLKEIFFNILVPGAEEAQKERQRQKELESNYRRVWGSPGGEGTGDLDEFDF
modifications: left off: small tags and cut ends
notes: human OS-9 protein (667-residue isoform), HA-tagged, from expression vector or in vitro-translated
HIF-1α protein levels ([2]; 293 cells co-transfected with HIF-1α and OS-9 expression vector, FIG. 3C): reduced
levels of HIF-1α-TM (P402A/P564A/N803A) ([2]; 293 cells co-transfected with OS-9 expression vector, FIG. 4A): no effect
levels of FLAG-tagged HIF-1α ([2]; 293 cells, increasing amounts of PHD2 expression vector, presence of OS-9, FIG. 6A): dramatically reduced
reporter gene transcription mediated by HIF-1 heterodimers containing HIF-1α-TM [3, 4]: neither OS-9 nor PHD2 inhibited
